The source of these data is patent publication US20120039810, “APTAMER-CONTAINING COMPOSITIONS AND METHODS FOR TARGETING E-SELECTIN” (published 2012).

In series [1] the target is T1, E-selectin on ES-Endo cells (Tet-on HMVEC) (UniProt P16581 P16581:22-610).
T1 sequence: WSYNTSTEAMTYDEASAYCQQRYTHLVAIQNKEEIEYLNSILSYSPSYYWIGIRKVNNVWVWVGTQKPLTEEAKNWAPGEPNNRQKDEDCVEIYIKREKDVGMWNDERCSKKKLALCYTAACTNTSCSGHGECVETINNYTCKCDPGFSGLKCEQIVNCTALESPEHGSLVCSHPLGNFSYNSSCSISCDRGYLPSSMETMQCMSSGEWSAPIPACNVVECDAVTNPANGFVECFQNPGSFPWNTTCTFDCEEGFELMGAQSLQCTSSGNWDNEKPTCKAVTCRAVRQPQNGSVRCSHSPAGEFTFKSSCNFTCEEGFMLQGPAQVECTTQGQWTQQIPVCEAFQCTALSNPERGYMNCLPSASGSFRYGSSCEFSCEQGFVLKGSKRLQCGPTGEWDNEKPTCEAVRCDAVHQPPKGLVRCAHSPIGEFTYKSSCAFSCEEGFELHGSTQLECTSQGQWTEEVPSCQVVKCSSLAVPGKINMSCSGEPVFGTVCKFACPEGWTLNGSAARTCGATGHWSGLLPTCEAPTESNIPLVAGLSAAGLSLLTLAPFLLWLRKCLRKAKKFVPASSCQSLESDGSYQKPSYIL
The series is described as follows: cell_activity; inhibition of HL-60 adhesion to ES-Endo, 4 C; 80% at 100 nM. Here is the method: On the basis of specific binding of ESTA-1 to E-selectin, a study was done to determine the effect of ESTA-1 on adhesion of sLe^X positive cells to endothelial cells. Confluent E-selectin expressing ES-Endo cells were incubated with doxycycline for 5 hours followed by ESTA-1 (50 nM, 100 nM) for 20 minutes. HL-60 cells a human promyelomonocytic cell line, or cells from two breast cancer cell lines (MDA-MB-231 and MDA-MB-468: 10^5 cells) suspended in RPMI containing 1% FBS were added to ES-Endo and incubated at 4° C. for 30 minutes with mild agitation. The unbound cells were washed off with RPMI containing 1% FBS. The number of cells that adhered to the ES-Endo was counted on at least 3 random areas using a light microscope (final magnification 100×) and expressed as the mean of triplicate experiments. […] HL-60 cell adhesion to ES-Endo increased by 5-fold when E-selectin expression was induced by doxycycline (FIG. 12A). Pretreatment of the E-selectin expressing ES-Endo with ESTA-1 inhibited HL-60 adhesion by 80% at 100 nM ESTA-1 (FIG. 12A). […] Lastly, we tested cytotoxicity associated with ESTA-1 treatment in ES-Endo cells. ES-Endo cells were first incubated with doxycycline for 5 hours and then with increasing concentration of ESTA-1 (up to 200 nM) for 48 hours. MTT assay was performed to test cell viability.

Another series deals with T2, L-selectin (Homo sapiens, UniProt P14151 P14151:39-332).
T2 sequence: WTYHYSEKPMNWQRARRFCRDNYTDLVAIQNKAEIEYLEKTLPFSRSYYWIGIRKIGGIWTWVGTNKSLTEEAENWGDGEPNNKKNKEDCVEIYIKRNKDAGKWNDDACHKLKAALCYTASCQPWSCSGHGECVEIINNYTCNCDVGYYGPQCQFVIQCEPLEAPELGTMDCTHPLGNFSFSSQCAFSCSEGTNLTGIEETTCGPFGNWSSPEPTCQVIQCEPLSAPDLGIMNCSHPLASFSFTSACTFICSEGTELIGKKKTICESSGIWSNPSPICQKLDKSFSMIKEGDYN
The series is described as follows: EMSA; binding not detectable under the same conditions. From the text: Protein-bound TA and unbound TA were quantified using ImageJ software. The binding curves were generated assuming a single binding site curve fits using the Graph Pad Prism software.
To evaluate the binding affinity of ESTA-1 to all selectins, an electrophoretic mobility shift assay (EMSA) was utilized. To determine the binding constant, fixed amounts of ESTA-1 was mixed with increasing amounts of recombinant protein (E-, P-, and L-selectin). ESTA-1 (4.6 pmoles) and recombinant human selectin protein (up to 19 pmoles) were incubated and subjected to electrophoresis at 4° C. The gels were stained with SYBR Gold nucleic acid stain and densitometric analysis of the unbound ESTA-1 was plotted using E-selectin or P-selectin recombinant protein. […] As expected, the amounts of ESTA-1/E-selectin complexes reached saturation at a molar ratio of 1:1, when both of the binding molecules are at a concentration of 500 nM. Based on the densitometric analysis, the binding constant calculated for the ESTA-1 binding to E-selectin was 47 nM (FIG. 11A). […] ESTA-1 binding to L-selectin was not detectable under the same conditions. […] To further validate the binding affinity of ESTA-1 under biological conditions, different concentrations of ESTA-1 (50-200 nM) were incubated with ES-Endo cells induced with doxycycline. […] ESTA-1 binding was analyzed by fluorescent imaging.

A further series concerns the target P-selectin (Homo sapiens, UniProt P16109 P16109:42-771). Nature of the series: EMSA; estimated; PBS with Ca2+ and Mg2+, 5 mM MgCl2, 1% NP40. The procedure: Equal amounts of ESTA-1 (4.6 pmoles) were incubated with increasing concentrations of the recombinant selectin proteins (0-19 pmoles) in a total volume of 10.5 μl of PBS supplemented with Ca2+ and Mg2+, 5 mM MgCl2, and 1% NP40 at room temperature for 45 minutes. The reaction mixtures were loaded onto 6% polyacrylamide tris borate gels and run at 100 V for 90 minutes at 4° C. The gel was stained with SYBR Gold nucleic acid staining dye and visualized using the Fluor Chem 8800 chemimager (Alpha Innotech). Protein-bound TA and unbound TA were quantified using ImageJ software. The binding curves were generated assuming a single binding site curve fits using the Graph Pad Prism software.
To evaluate the binding affinity of ESTA-1 to all selectins, an electrophoretic mobility shift assay (EMSA) was utilized. To determine the binding constant, fixed amounts of ESTA-1 was mixed with increasing amounts of recombinant protein (E-, P-, and L-selectin). ESTA-1 (4.6 pmoles) and recombinant human selectin protein (up to 19 pmoles) were incubated and subjected to electrophoresis at 4° C. The gels were stained with SYBR Gold nucleic acid stain and densitometric analysis of the unbound ESTA-1 was plotted using E-selectin or P-selectin recombinant protein. […] Based on the densitometric analysis, the binding constant calculated for the ESTA-1 binding to E-selectin was 47 nM (FIG. 11A). […]

P-selectin, sequence (P16109 42-771, one chain of several): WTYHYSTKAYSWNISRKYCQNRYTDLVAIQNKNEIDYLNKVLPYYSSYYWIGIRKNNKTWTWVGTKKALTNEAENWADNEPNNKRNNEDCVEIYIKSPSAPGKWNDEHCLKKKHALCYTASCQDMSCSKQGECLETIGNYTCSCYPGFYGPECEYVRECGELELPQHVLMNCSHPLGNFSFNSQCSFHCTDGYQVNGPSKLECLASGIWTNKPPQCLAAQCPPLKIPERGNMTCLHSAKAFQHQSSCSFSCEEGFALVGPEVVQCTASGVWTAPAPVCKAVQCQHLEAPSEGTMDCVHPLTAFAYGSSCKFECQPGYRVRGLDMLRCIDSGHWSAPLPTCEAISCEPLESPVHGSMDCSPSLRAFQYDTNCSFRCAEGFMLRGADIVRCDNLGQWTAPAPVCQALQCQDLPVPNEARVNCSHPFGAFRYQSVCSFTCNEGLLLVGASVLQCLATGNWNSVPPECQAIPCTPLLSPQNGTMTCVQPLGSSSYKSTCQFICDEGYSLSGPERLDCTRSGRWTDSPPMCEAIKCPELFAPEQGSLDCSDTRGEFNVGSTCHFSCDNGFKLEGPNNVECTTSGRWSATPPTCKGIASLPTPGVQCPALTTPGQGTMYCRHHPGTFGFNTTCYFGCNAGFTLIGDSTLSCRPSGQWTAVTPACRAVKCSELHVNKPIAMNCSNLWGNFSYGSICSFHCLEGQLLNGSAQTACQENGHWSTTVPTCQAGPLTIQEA

B1: ESTA-1 (TA-1) (ssDNA)
DNA: CGCTCGGATCGATAAGCTTCGATCCCACTCTCCCGTTCACTTCTCCTCACGTCACGGATCCTCTAGAGCACTG
modifications: 5'-monothiophosphate (Rp) on all dA except in primer-binding region
As a reminder, the IC50 is the concentration needed to halve the response being measured. As a reminder, the Kd is the concentration at which binding is half-saturated. As to B1, in series [1], the half-maximal inhibitory concentration (IC50) is approximately 0.063 µM. In addition, the binding result with L-selectin is “no binding”. For the same molecule, the Kd with P-selectin was approximately 13 µM.
